The values that follow come from publication PMC4086937, “Two Modes of Regulation of the Fatty Acid Elongase ELOVL6 by the 3-Ketoacyl-CoA Reductase KAR in the Fatty Acid Elongation Cycle” (PLoS ONE, 2014).

The target of data set [1] is T1, KAR (Homo sapiens, UniProt Q53GQ0).
T1 construct: gene HSD17B12; N-terminal 3xFLAG, kept; HEK 293T expressed; anti-FLAG purified, co-reconstituted with ELOVL6 in POPC proteoliposomes; 36 kDa and faint N-glycosylated 39 kDa
T1 sequence (Q53GQ0 1-312): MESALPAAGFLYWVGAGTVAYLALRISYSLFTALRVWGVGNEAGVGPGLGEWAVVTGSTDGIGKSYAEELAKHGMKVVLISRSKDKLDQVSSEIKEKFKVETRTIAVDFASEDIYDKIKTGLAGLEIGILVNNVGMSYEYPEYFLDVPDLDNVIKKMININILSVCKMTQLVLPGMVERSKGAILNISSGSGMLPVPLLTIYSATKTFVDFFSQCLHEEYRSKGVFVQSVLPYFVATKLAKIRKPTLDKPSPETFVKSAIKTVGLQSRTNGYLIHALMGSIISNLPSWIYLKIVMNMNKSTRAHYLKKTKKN
T1 sequence (Q9H5J4 1-265 partner): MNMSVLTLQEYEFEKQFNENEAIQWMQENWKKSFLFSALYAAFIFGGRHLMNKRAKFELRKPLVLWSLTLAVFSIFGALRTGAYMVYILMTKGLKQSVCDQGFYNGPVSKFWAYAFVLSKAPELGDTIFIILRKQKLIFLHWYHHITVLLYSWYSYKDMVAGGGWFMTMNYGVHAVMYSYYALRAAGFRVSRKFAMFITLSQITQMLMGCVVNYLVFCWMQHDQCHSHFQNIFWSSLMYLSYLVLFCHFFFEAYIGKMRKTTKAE
Put plainly: coupled elongation with ELOVL6, […]malonyl-CoA, TLC. The format is biochemical. Particulars: 1 mM NADPH; co-reconstituted ELOVL6; 8 µM C16:0-CoA; 27.3 µM [14C]malonyl-CoA; pH 6.8; 37 °C; 90 min.

Substrate in data set [2]: CC(C)(COP(=O)(O)OP(=O)(O)OC[C@H]1O[C@@H](n2cnc3c(N)ncnc32)[C@H](O)[C@@H]1OP(=O)(O)O)[C@@H](O)C(=O)NCCC(=O)NCCSC(=O)CC(=O)O
Put plainly: purified protein. It counts as biochemical, Homo sapiens. The note with it: 8 µM C16:0-CoA, proteoliposomes, pH 6.8, 37 °C, 90 min, ELOVL6 alone, labelled compound.

Substrate in data set [3]: CCCCCCCCCCCCCCCC(=O)SCCNC(=O)CCNC(=O)[C@H](O)C(C)(C)COP(=O)(O)OP(=O)(O)OC[C@H]1O[C@@H](n2cnc3c(N)ncnc32)[C@H](O)[C@@H]1OP(=O)(O)O
Put plainly: purified protein. The format is biochemical, Homo sapiens. Particulars: 27.3 µM [14C]malonyl-CoA, proteoliposomes, pH 6.8, 37 °C, 90 min, ELOVL6 alone.

Data set [4] concerns the target T2, 3xFLAG-ELOVL6 (fatty acid elongase ELOVL6) (human) (UniProt Q9H5J4).
T2 sequence: T1 sequence (Q9H5J4 1-265 partner)

For data set [5], the target named is T2, 3xFLAG-ELOVL6 (fatty acid elongase ELOVL6) (human). The source holds these as a separate data set.

Changes are numbered by the printed parent chain. In names and notes the source's numbering stands.

For the molecule `NC(=O)C1=CN([C@@H]2O[C@H](COP(=O)(O)OP(=O)(O)OC[C@H]3O[C@@H](n4cnc5c(N)ncnc54)[C@H](OP(=O)(O)O)[C@@H]3O)[C@@H](O)[C@H]2O)C=CC1` [NADPH], in data set [1], the “coupled elongation with ELOVL6, [14C]malonyl-CoA, TLC” value is reported as “caused production of 3-hydroxyacyl-CoA with a large increase in product levels”.

B1: ELOVL6 (Homo sapiens) (protein)
chain: T1 sequence (Q9H5J4 1-265 partner)
notes: N-terminal 3xFLAG, kept; HEK 293T expressed; Triton X-100 solubilized, anti-FLAG purified, reconstituted in POPC proteoliposomes; 29 kDa and N-glycosylated 32 kDa
For orientation: Km means the concentration of substrate that gives half-maximal velocity. For the molecule B1, the Michaelis-Menten constant (Km) in data set [2] is 6.46 µM; in data set [3], 1.22 µM.

B2: 3xFLAG-KAR (3-ketoacyl-CoA reductase KAR), wild type (enzyme)
chain: T1 sequence (Q53GQ0 1-312)
On to B2, for which, in data set [4], the in vitro FA elongation assay, purified ELOVL6 and KAR co-reconstituted into proteoliposomes, without NADPH: 3-ketoacyl-CoA levels compared to ELOVL6 alone was 3 fold; the in vitro FA elongation assay, purified ELOVL6 and wild type KAR in the same proteoliposomes, with 1 mM NADPH: product levels compared to ELOVL6 alone was 8 fold.

B3: 3xFLAG-KAR S189A (enzyme)
chain: T1 sequence (Q53GQ0 1-312) with S189A
For B3, in data set [5], the in vitro FA elongation assay, purified ELOVL6 and KAR S189A co-reconstituted into proteoliposomes, with and without 1 mM NADPH: ELOVL6 activity compared to ELOVL6 alone stood at 3 fold.
